Measurements published in patent US20100136009A1 (DIADEXUS, published 2010).

T1: Ovr110 (amino acids 1-282; Ovr110 Construct 1 without the 6-His tag) expressed on transiently transfected … (human, UniProt Q7Z7D3 25-282)
T1 construct: signal peptide not removed here
T1 sequence: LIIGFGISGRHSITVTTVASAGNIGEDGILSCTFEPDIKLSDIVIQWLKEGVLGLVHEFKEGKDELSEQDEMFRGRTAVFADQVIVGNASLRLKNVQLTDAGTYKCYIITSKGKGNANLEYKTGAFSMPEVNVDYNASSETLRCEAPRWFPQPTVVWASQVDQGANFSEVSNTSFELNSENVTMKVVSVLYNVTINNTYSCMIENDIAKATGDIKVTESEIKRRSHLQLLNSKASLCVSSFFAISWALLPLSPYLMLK

T2: native Ovr110 protein on tumor cells (ZR-75-1, SKBR3, RL95.2, OVCAR3) (human, UniProt Q7Z7D3 25-282)
T2 construct: whole, on cells; Endogenous protein of Ovr110-positive tumor cell lines; also called B7-H4; B7x
T2 sequence (looked up): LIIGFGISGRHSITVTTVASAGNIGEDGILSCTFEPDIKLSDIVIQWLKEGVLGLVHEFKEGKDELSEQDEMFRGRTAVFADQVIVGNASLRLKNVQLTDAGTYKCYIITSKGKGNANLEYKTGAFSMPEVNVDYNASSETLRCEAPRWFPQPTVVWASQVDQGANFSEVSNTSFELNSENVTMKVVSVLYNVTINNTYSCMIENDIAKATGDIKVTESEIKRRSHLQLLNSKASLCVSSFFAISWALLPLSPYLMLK

T3: recombinant Ovr110-hFc encoded by Ovr110 Construct 2 (human)
T3 construct: Captured on plates by goat anti-human IgG Fc; also called Ovr110-hFc (with TM)
T3 chain: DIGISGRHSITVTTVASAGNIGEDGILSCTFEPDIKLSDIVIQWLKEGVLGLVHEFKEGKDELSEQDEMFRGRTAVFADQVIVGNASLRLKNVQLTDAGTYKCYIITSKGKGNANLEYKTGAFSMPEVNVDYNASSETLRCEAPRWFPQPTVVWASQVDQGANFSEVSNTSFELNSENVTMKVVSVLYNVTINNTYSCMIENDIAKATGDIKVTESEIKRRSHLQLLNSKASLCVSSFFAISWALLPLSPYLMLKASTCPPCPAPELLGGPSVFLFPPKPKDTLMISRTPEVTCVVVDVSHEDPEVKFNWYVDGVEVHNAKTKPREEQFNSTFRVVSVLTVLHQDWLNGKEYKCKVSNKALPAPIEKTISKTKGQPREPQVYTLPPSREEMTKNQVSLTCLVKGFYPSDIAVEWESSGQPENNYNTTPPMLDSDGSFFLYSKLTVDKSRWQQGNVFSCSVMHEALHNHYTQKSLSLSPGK


How the values were obtained:
[1] = molecular target: transferrin receptor (TfnR, CD71) on cells (UniProt P02786); assay: cell-based or functional assay
transferrin receptor (TfnR, CD71) on cells, sequence (P02786 whole entry, the tested form may be a part): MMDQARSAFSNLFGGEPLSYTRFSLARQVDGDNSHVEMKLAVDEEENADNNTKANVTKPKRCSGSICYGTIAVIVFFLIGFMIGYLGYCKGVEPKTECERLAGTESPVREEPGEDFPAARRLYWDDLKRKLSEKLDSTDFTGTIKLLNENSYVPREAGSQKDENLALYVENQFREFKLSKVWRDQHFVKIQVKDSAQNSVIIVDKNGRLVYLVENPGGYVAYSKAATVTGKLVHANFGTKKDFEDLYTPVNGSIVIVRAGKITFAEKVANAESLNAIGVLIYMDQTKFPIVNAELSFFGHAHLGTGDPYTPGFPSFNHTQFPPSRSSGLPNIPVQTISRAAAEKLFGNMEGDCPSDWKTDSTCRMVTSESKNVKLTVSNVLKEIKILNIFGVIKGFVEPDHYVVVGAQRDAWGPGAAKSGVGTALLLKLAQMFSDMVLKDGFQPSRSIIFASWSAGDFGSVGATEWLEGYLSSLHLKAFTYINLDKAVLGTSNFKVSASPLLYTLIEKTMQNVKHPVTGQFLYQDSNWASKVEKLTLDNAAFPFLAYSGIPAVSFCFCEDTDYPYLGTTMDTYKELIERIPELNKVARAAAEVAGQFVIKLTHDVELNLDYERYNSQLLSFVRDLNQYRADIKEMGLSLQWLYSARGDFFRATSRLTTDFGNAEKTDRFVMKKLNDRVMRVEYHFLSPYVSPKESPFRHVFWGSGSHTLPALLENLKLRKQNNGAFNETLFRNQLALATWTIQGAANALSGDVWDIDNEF

[2] = molecular target: T1, Ovr110 (amino acids 1-282; Ovr110 …); assay: flow cytometry; purified MAb; Ovr110-transfected 293F cells
[3] = molecular target: T2, native Ovr110 protein on tumor cells …; assay: flow cytometry; purified MAb; SKBR3 cells
[4] = molecular target: T3, recombinant Ovr110-hFc encoded by …; assay: competition ELISA; row = unlabeled blocking MAb; competitor = biotinylated detecting MAb Q23.6
[5] = molecular target: T3, recombinant Ovr110-hFc encoded by …; assay: competition ELISA; row = unlabeled blocking MAb; competitor = biotinylated detecting MAb C6.3
[6] = molecular target: T3, recombinant Ovr110-hFc encoded by …; assay: competition ELISA; row = unlabeled blocking MAb; competitor = biotinylated detecting MAb Q27.4
[7] = molecular target: T3, recombinant Ovr110-hFc encoded by …; assay: competition ELISA; row = unlabeled blocking MAb; competitor = biotinylated detecting MAb Q12.2
[8] = molecular target: T3, recombinant Ovr110-hFc encoded by …; assay: competition ELISA; row = unlabeled blocking MAb; competitor = biotinylated detecting MAb Q3.1
[9] = molecular target: T3, recombinant Ovr110-hFc encoded by …; assay: competition ELISA; row = unlabeled blocking MAb; competitor = biotinylated detecting MAb Q11.12.3
[10] = molecular target: T2, native Ovr110 protein on tumor cells …; assay: flow cytometry; purified MAb; ZR-75-1 cells
[11] = molecular target: T2, native Ovr110 protein on tumor cells …; assay: flow cytometry; hybridoma supernatant; SKBR3 cells
[12] = molecular target: T2, native Ovr110 protein on tumor cells …; assay: flow cytometry titration of fluorescein-labeled MAb on ZR75-1 cells; one-site fit
[13] = molecular target: T3, recombinant Ovr110-hFc encoded by …; assay: competition ELISA; row = unlabeled blocking MAb; competitor = biotinylated detecting MAb Q19.6
[14] = molecular target: T3, recombinant Ovr110-hFc encoded by …; assay: competition ELISA; row = unlabeled blocking MAb; competitor = biotinylated detecting MAb Q15.2
[15] = molecular target: T3, recombinant Ovr110-hFc encoded by …; assay: competition ELISA; row = unlabeled blocking MAb; competitor = biotinylated detecting MAb A87.1
[16] = molecular target: T1, Ovr110 (amino acids 1-282; Ovr110 …); assay: flow cytometry; hybridoma supernatant; Ovr110-transfected 293F cells
[17] = molecular target: T2, native Ovr110 protein on tumor cells …; assay: cell-based or functional assay
[18] = molecular target: T2, native Ovr110 protein on tumor cells …; assay: cell-based or functional assay; remark: listed apart in the source

Molecule | % Cells Positive [2] [%] | MFI [2] | % Cells Positive [3] [%] | MFI [3] | signal/noise ratio [4] | signal/noise ratio [5] | signal/noise ratio [6] | signal/noise ratio [7] | signal/noise ratio [8] | signal/noise ratio [9] | % Cells Positive [10] [%] | MFI [10] | % Cells Positive [11] [%] | Mean Fluorescence Intensity (MFI) [11] | Kd [12] [nM] | signal/noise ratio [13] | signal/noise ratio [14] | signal/noise ratio [15] | % Cells Positive [16] [%] | Mean Fluorescence Intensity (MFI) [16] | other results
anti-TfnR MAb 5E9 (ATCC) (antibody) |  |  |  |  |  |  |  |  |  |  |  |  |  |  |  |  |  |  |  |  | Percentage growth compared to wells with media alone; HCT116; MAb 2.0 ug/mL with 1.0 ug/mL mAb-ZAP [1]: 24.9%; Percentage growth compared to wells with media alone; SKBR3; MAb 0.4 ug/mL with 1.0 ug/mL mAb-ZAP [1]: 18.4%; Percentage growth compared to wells with media alone; SKBR3; MAb 2.0 ug/mL with 1.0 ug/mL mAb-ZAP [1]: 44.6%; Percentage growth compared to wells with media alone; ZR-75-1; MAb 0.4 ug/mL with 1.0 ug/mL mAb-ZAP [1]: 35%; Percentage growth compared to wells with media alone; ZR-75-1; MAb 2.0 ug/mL with 1.0 ug/mL mAb-ZAP [1]: 49.3%
Ovr110.Q12 (antibody, IgG1, V domains shown, Mouse hybridoma MAb; also called Q12.2; Ovr110.Q12.2) VH: QVQLQQPGAELVKPGATVKLSCKTSGYTFTSYWMHWVKQRPGQGLEWIGEIDPSDSYTNYNQKFKGKATLTVDTSSTTAYMQLSSLTSEDSAVYYCAREYGNNDAMDYWGQGTSVTVSS VL: QIVLTQSPAIMSASPGEKVTMTCSASSGISYMHWYQQKPGTTPKRWIYDASKLASGVPSRFSGSGSGTSYSLTISSMEAEDAATYYCHQRRSYPFTFGSGTKLEIKR | 94.3 | 5.25 | 95.3 | 4.86 | 3.6 | 1.2 | 4.3 | 1 | 1.4 | 1.2 | 94.1 | 3.76 | 98.8 | 12 | 0.64 | 1.1 | 11.6 | 6.7 | 96.6 | 31.8 | 
Ovr110.Q19 (antibody, IgG1, V domains shown, Mouse hybridoma MAb; also called Q19.6; Ovr110.Q19.6) VH: DVLLQESGPGLVKASQSLSLTCSVTGYSITSGYFWNWIRQFPGNKLEWMGYISYDGGNSYNPSLKNRISITRDTSKNQFFLRMKSVTAEDTATYYCARKALWLRFDYWGQGTTLTVSS VL: EIVLTQSPAIMSVYLGEKVTMTCSASLSVSYMHWYQQKSSTSPKLWIYDTSKVASGVPGRFSGSGSGNSYSLTISSMEAEDVATYYCFQGSGYPFTFGSGTKLEIKR | 91.9 | 5.25 | 95.2 | 4.64 | 4.8 | 1.2 | 4.7 | 1.1 | 1.3 | 1 | 95.6 | 4.11 | 98.9 | 10.4 | 0.53 | 1 | 11.7 | 6.6 | 95.7 | 24.5 | Percentage growth compared to wells with media alone; ZR-75-1; MAb 0.4 ug/mL with 1.0 ug/mL mAb-ZAP [17]: 28.1%; Percentage growth compared to wells with media alone; ZR-75-1; MAb 2.0 ug/mL with 1.0 ug/mL mAb-ZAP [17]: 46.5%; Percentage growth compared to wells with media alone; SKBR3; MAb 0.4 ug/mL with 1.0 ug/mL mAb-ZAP [18]: 49.8%; Percentage growth compared to wells with media alone; SKBR3; MAb 2.0 ug/mL with 1.0 ug/mL mAb-ZAP [18]: 25%
Ovr110.Q11 (antibody, V domains shown, Mouse hybridoma MAb; also called Q11.12.3; Ovr110.Q11.12.3) VH: DVQLQESGPGLVKPSQSLSLTCSVTGYSITSGYFWSWIRQFPGNKLEWMGFISYDGTNSYNPSLKNRISITRDTSKNQFFLRLNSVTKEDTATYYCARKLLWLRFDYWGQGTTLTVSS VL: ENVLTQSPAIMSASPGEKVTMTCSASSSVSYMHWYQQKSSTSPKLWIYDTSKLASGVPGRFSGSGSGNSYSLTISSMEAEDVATYYCFQGSGYPFTFGSGTKLEIKR | 93.8 | 5.47 | 98.4 | 5.95 | 4.5 | 1.2 | 4.7 | 1 | 1.3 | 1 | 96.4 | 4.68 | 98.7 | 9.71 | 0.74 | 1 | 11.7 | 6.4 | 95.7 | 26 | 

More lines, main results first:

% Cells Positive [2] [%] | MFI [2] | % Cells Positive [3] [%] | MFI [3] | signal/noise ratio [4] | signal/noise ratio [5] | signal/noise ratio [6] | signal/noise ratio [7] | signal/noise ratio [8] | signal/noise ratio [9] | % Cells Positive [10] [%] | MFI [10] | % Cells Positive [11] [%] | Mean Fluorescence Intensity (MFI) [11] | Kd [12] [nM] | signal/noise ratio [13] | signal/noise ratio [14] | signal/noise ratio [15] | % Cells Positive [16] [%] | Mean Fluorescence Intensity (MFI) [16] | Molecule | other results
95.2 | 5.48 | 94.8 | 3.9 | 1 | 1.2 | 1 | 3.1 | 1.4 | 5.5 | 93.3 | 2.92 | 87.7 | 1.48 | 4.76 | 6.5 | 11.8 | 6.7 | 91.8 | 6.09 | Ovr110.Q27 (antibody, IgG1, V domains shown, Mouse hybridoma MAb; also called Q27.4; Q27.2) VH: QVQPQQSGAELARPGASVKLSCKASGYTFTTYWMQWVKQRPGQGLEWIGAIYPGDGDTRYTQKFKGKATLTADKSSSTAYMQLSSLASEDSAVYYCAINWGYAMDYWGQGTSVTVSS VL: DIVLTQSHKIMSTSVGDRVSITCKASQDVRTAVAWYQQKPGQSPKLLIKSASYRYTGVPDRFSGSGSGTDFTFTISSVQAEDLAVYYCQQHYSNPTFGGGTKLEIKR | Percentage growth compared to wells with media alone; ZR-75-1; MAb 0.4 ug/mL with 1.0 ug/mL mAb-ZAP [17]: 60.6%; Percentage growth compared to wells with media alone; ZR-75-1; MAb 2.0 ug/mL with 1.0 ug/mL mAb-ZAP [17]: 69.5%; Percentage growth compared to wells with media alone; SKBR3; MAb 0.4 ug/mL with 1.0 ug/mL mAb-ZAP [18]: 68.9%; Percentage growth compared to wells with media alone; SKBR3; MAb 2.0 ug/mL with 1.0 ug/mL mAb-ZAP [18]: 73.6%
92.6 | 4.98 | 93.9 | 3.85 | 1 | 1.2 | 2.2 | 2.8 | 1.4 | 5.2 | 92.7 | 3.25 | 97.1 | 4.35 | 5.66 | 6 | 2.9 | 6.7 | 94.7 | 17.9 | Ovr110.Q23 (antibody, IgG1, V domains shown, Mouse hybridoma MAb; also called Q23.6) VH: QVQLQQSGAELMKPGASVKISCKATGYTFSSYWIEWVKQRPGHGLEWIGEILPGSGITKYNEKFKTKATFTADTSSNTAYMQLSSLTSEDSAVYYCARYYFGSVNFYFDCWGQGTTLTVSS VL: QAVVTQESALTTSPGETVTLTCRSSTGAVTTSNYANWVQEKPDHLFTGLIGGTDNRPPGVPARFSGSLIGDKAALTITGTQTEDEAIYFCALWYSNHWVFGGGTKLTVLG | Percentage growth compared to wells with media alone; ZR-75-1; MAb 0.4 ug/mL with 1.0 ug/mL mAb-ZAP [17]: 37.5%; Percentage growth compared to wells with media alone; ZR-75-1; MAb 2.0 ug/mL with 1.0 ug/mL mAb-ZAP [17]: 45.5%; Percentage growth compared to wells with media alone; SKBR3; MAb 0.4 ug/mL with 1.0 ug/mL mAb-ZAP [18]: 68.9%; Percentage growth compared to wells with media alone; SKBR3; MAb 2.0 ug/mL with 1.0 ug/mL mAb-ZAP [18]: 73.6%
